System: 3-methylcrotonic acid
Format: biochemical, Yersinia frederiksenii
Parameters: key: “+” representing a low increase in activity; “++++” representing a high increase in activity

| Molecule | Activity relative to WT |
| --- | --- |
| I283T-N285P-N287T-Q290E-S322T-N388M-K394R-E421F-C430A-i430aL-L432F-L434W-S436N-dG462 (protein) MFLKSLREQINLLKRQGDLRIINRPVDSYLEAAAIIRRSTETKAPVPLMTNIKGYPGCSIVGGLAALSSNPEYPLSRVAMSLGLSTTASAQSIVQYLIDGLKKTPYLPVEIDSNSAPCKQNILRGEDASLAHFPIPQVHQHDGNRYVNTWGVFIVESPDGQWCNWSIQRVQYLNDRQMIALVFPSQHISDIWEEWVKIGKPMPYALVQGCEPIVPYIAGLPLLERNVNEAEYIGALYGKGIEVVKCETHDLRVPASSEVVIEGYFAITREGVEGPFGEFAGYTPPETSLEPILSITAISWQDDPIWPVVAEGKPVDEYHTCTGIGDAAAIQNVLLTANLPVSFVWVPLYSACHLMIVSINRHWRQTHPDLTSEQLTKKVGDVIHQTRMSIKLPRIVVLDDDVDPADTESLLWALATRIHPFRKRYFYESAIFPWLNCYSEEERHNRKGKRVIIDALLPENHGAISSFDYAYPDDIKQRVLMHWETDFSHD | ++++ |
| I283T-N285P-N287T-Q290E-S322T-N388M-K394R-E421F-C430A-i430aN-L432F-L434W-S436N-dG462 (protein) MFLKSLREQINLLKRQGDLRIINRPVDSYLEAAAIIRRSTETKAPVPLMTNIKGYPGCSIVGGLAALSSNPEYPLSRVAMSLGLSTTASAQSIVQYLIDGLKKTPYLPVEIDSNSAPCKQNILRGEDASLAHFPIPQVHQHDGNRYVNTWGVFIVESPDGQWCNWSIQRVQYLNDRQMIALVFPSQHISDIWEEWVKIGKPMPYALVQGCEPIVPYIAGLPLLERNVNEAEYIGALYGKGIEVVKCETHDLRVPASSEVVIEGYFAITREGVEGPFGEFAGYTPPETSLEPILSITAISWQDDPIWPVVAEGKPVDEYHTCTGIGDAAAIQNVLLTANLPVSFVWVPLYSACHLMIVSINRHWRQTHPDLTSEQLTKKVGDVIHQTRMSIKLPRIVVLDDDVDPADTESLLWALATRIHPFRKRYFYESAIFPWLNCYSEEERHNRKGKRVIIDALLPENHGAISSFDYAYPDDIKQRVLMHWETDFSHD | ++++ |
| L223Y-I283T-N285P-N287T-Q290E-S322T-N388M-K394R-E421F-K423G-C430A-L432F-L434W-S436N-dG462 (protein) MFLKSLREQINLLKRQGDLRIINRPVDSYLEAAAIIRRSTETKAPVPLMTNIKGYPGCSIVGGLAALSSNPEYPLSRVAMSLGLSTTASAQSIVQYLIDGLKKTPYLPVEIDSNSAPCKQNILRGEDASLAHFPIPQVHQHDGNRYVNTWGVFIVESPDGQWCNWSIQRVQYLNDRQMIALVFPSQHISDIWEEWVKIGKPMPYALVQGCEPIVPYIAGLPLYERNVNEAEYIGALYGKGIEVVKCETHDLRVPASSEVVIEGYFAITREGVEGPFGEFAGYTPPETSLEPILSITAISWQDDPIWPVVAEGKPVDEYHTCTGIGDAAAIQNVLLTANLPVSFVWVPLYSACHLMIVSINRHWRQTHPDLTSEQLTKKVGDVIHQTRMSIKLPRIVVLDDDVDPADTESLLWALATRIHPFRGRYFYESAIFPWLNCYSEEERHNRKGKRVIIDALLPENHGAISSFDYAYPDDIKQRVLMHWETDFSHD | ++++ |
| L223Y-I283T-N285P-N287T-Q290E-S322T-N388M-K394R-C430A-i430aG-L432F-L434W-S436N-dG462 (protein) MFLKSLREQINLLKRQGDLRIINRPVDSYLEAAAIIRRSTETKAPVPLMTNIKGYPGCSIVGGLAALSSNPEYPLSRVAMSLGLSTTASAQSIVQYLIDGLKKTPYLPVEIDSNSAPCKQNILRGEDASLAHFPIPQVHQHDGNRYVNTWGVFIVESPDGQWCNWSIQRVQYLNDRQMIALVFPSQHISDIWEEWVKIGKPMPYALVQGCEPIVPYIAGLPLYERNVNEAEYIGALYGKGIEVVKCETHDLRVPASSEVVIEGYFAITREGVEGPFGEFAGYTPPETSLEPILSITAISWQDDPIWPVVAEGKPVDEYHTCTGIGDAAAIQNVLLTANLPVSFVWVPLYSACHLMIVSINRHWRQTHPDLTSEQLTKKVGDVIHQTRMSIKLPRIVVLDDDVDPADTESLLWALATRIHPERKRYFYESAIFPWLNCYSEEERHNRKGKRVIIDALLPENHGAISSFDYAYPDDIKQRVLMHWETDFSHD | ++++ |
| L223Y-I283T-N285P-N287T-Q290E-S322T-N388M-K394R-K423G-C430A-L432F-L434W-S436N-i448aS-dG462 (protein) MFLKSLREQINLLKRQGDLRIINRPVDSYLEAAAIIRRSTETKAPVPLMTNIKGYPGCSIVGGLAALSSNPEYPLSRVAMSLGLSTTASAQSIVQYLIDGLKKTPYLPVEIDSNSAPCKQNILRGEDASLAHFPIPQVHQHDGNRYVNTWGVFIVESPDGQWCNWSIQRVQYLNDRQMIALVFPSQHISDIWEEWVKIGKPMPYALVQGCEPIVPYIAGLPLYERNVNEAEYIGALYGKGIEVVKCETHDLRVPASSEVVIEGYFAITREGVEGPFGEFAGYTPPETSLEPILSITAISWQDDPIWPVVAEGKPVDEYHTCTGIGDAAAIQNVLLTANLPVSFVWVPLYSACHLMIVSINRHWRQTHPDLTSEQLTKKVGDVIHQTRMSIKLPRIVVLDDDVDPADTESLLWALATRIHPERGRYFYESAIFPWLNCYSEEERHNRKGKRVIIDALLPENHGAISSFDYAYPDDIKQRVLMHWETDFSHD | ++++ |
| I283T-N285P-N287T-Q290E-S322T-N388M-K394R-E421F-C430A-L432F-L434W-S436N-i448aS-dG462 (protein) MFLKSLREQINLLKRQGDLRIINRPVDSYLEAAAIIRRSTETKAPVPLMTNIKGYPGCSIVGGLAALSSNPEYPLSRVAMSLGLSTTASAQSIVQYLIDGLKKTPYLPVEIDSNSAPCKQNILRGEDASLAHFPIPQVHQHDGNRYVNTWGVFIVESPDGQWCNWSIQRVQYLNDRQMIALVFPSQHISDIWEEWVKIGKPMPYALVQGCEPIVPYIAGLPLLERNVNEAEYIGALYGKGIEVVKCETHDLRVPASSEVVIEGYFAITREGVEGPFGEFAGYTPPETSLEPILSITAISWQDDPIWPVVAEGKPVDEYHTCTGIGDAAAIQNVLLTANLPVSFVWVPLYSACHLMIVSINRHWRQTHPDLTSEQLTKKVGDVIHQTRMSIKLPRIVVLDDDVDPADTESLLWALATRIHPFRKRYFYESAIFPWLNCYSEEERHNRKGKRVIIDALLPENHGAISSFDYAYPDDIKQRVLMHWETDFSHD | ++++ |
| L223Y-I283T-N285P-N287T-Q290E-S322T-N388M-K394R-K423G-C430A-i430aN-L432F-L434W-S436N-dG462 (protein) MFLKSLREQINLLKRQGDLRIINRPVDSYLEAAAIIRRSTETKAPVPLMTNIKGYPGCSIVGGLAALSSNPEYPLSRVAMSLGLSTTASAQSIVQYLIDGLKKTPYLPVEIDSNSAPCKQNILRGEDASLAHFPIPQVHQHDGNRYVNTWGVFIVESPDGQWCNWSIQRVQYLNDRQMIALVFPSQHISDIWEEWVKIGKPMPYALVQGCEPIVPYIAGLPLYERNVNEAEYIGALYGKGIEVVKCETHDLRVPASSEVVIEGYFAITREGVEGPFGEFAGYTPPETSLEPILSITAISWQDDPIWPVVAEGKPVDEYHTCTGIGDAAAIQNVLLTANLPVSFVWVPLYSACHLMIVSINRHWRQTHPDLTSEQLTKKVGDVIHQTRMSIKLPRIVVLDDDVDPADTESLLWALATRIHPERGRYFYESAIFPWLNCYSEEERHNRKGKRVIIDALLPENHGAISSFDYAYPDDIKQRVLMHWETDFSHD | ++++ |
| L223Y-I283T-N285P-N287T-Q290E-S322T-N388M-K394R-K423G-C430A-i430aL-L432F-L434W-S436N-dG462 (protein) MFLKSLREQINLLKRQGDLRIINRPVDSYLEAAAIIRRSTETKAPVPLMTNIKGYPGCSIVGGLAALSSNPEYPLSRVAMSLGLSTTASAQSIVQYLIDGLKKTPYLPVEIDSNSAPCKQNILRGEDASLAHFPIPQVHQHDGNRYVNTWGVFIVESPDGQWCNWSIQRVQYLNDRQMIALVFPSQHISDIWEEWVKIGKPMPYALVQGCEPIVPYIAGLPLYERNVNEAEYIGALYGKGIEVVKCETHDLRVPASSEVVIEGYFAITREGVEGPFGEFAGYTPPETSLEPILSITAISWQDDPIWPVVAEGKPVDEYHTCTGIGDAAAIQNVLLTANLPVSFVWVPLYSACHLMIVSINRHWRQTHPDLTSEQLTKKVGDVIHQTRMSIKLPRIVVLDDDVDPADTESLLWALATRIHPERGRYFYESAIFPWLNCYSEEERHNRKGKRVIIDALLPENHGAISSFDYAYPDDIKQRVLMHWETDFSHD | ++++ |
| L223Y-I283T-N285P-N287T-Q290E-S322T-N388M-K394R-K423G-C430A-i430aG-L432F-L434W-S436N-dG462 (protein) MFLKSLREQINLLKRQGDLRIINRPVDSYLEAAAIIRRSTETKAPVPLMTNIKGYPGCSIVGGLAALSSNPEYPLSRVAMSLGLSTTASAQSIVQYLIDGLKKTPYLPVEIDSNSAPCKQNILRGEDASLAHFPIPQVHQHDGNRYVNTWGVFIVESPDGQWCNWSIQRVQYLNDRQMIALVFPSQHISDIWEEWVKIGKPMPYALVQGCEPIVPYIAGLPLYERNVNEAEYIGALYGKGIEVVKCETHDLRVPASSEVVIEGYFAITREGVEGPFGEFAGYTPPETSLEPILSITAISWQDDPIWPVVAEGKPVDEYHTCTGIGDAAAIQNVLLTANLPVSFVWVPLYSACHLMIVSINRHWRQTHPDLTSEQLTKKVGDVIHQTRMSIKLPRIVVLDDDVDPADTESLLWALATRIHPERGRYFYESAIFPWLNCYSEEERHNRKGKRVIIDALLPENHGAISSFDYAYPDDIKQRVLMHWETDFSHD | ++++ |
| L223Y-I283T-N285P-N287T-Q290E-S322T-N388M-K394R-i429aN-C430A-L432F-L434W-S436N-dG462 (protein) MFLKSLREQINLLKRQGDLRIINRPVDSYLEAAAIIRRSTETKAPVPLMTNIKGYPGCSIVGGLAALSSNPEYPLSRVAMSLGLSTTASAQSIVQYLIDGLKKTPYLPVEIDSNSAPCKQNILRGEDASLAHFPIPQVHQHDGNRYVNTWGVFIVESPDGQWCNWSIQRVQYLNDRQMIALVFPSQHISDIWEEWVKIGKPMPYALVQGCEPIVPYIAGLPLYERNVNEAEYIGALYGKGIEVVKCETHDLRVPASSEVVIEGYFAITREGVEGPFGEFAGYTPPETSLEPILSITAISWQDDPIWPVVAEGKPVDEYHTCTGIGDAAAIQNVLLTANLPVSFVWVPLYSACHLMIVSINRHWRQTHPDLTSEQLTKKVGDVIHQTRMSIKLPRIVVLDDDVDPADTESLLWALATRIHPERKRYFYESAIFPWLNCYSEEERHNRKGKRVIIDALLPENHGAISSFDYAYPDDIKQRVLMHWETDFSHD | ++++ |

Reference: patent publication US20250327097A1, “ORGANISMS PRODUCING LESS CROTONIC ACID” (Global Bioenergies, priority 2021, published 2025)
